B1: ECFP–SUV39H1-Nchromo (domain or fragment, human, UniProt O43463-1 3-118, looked up)
chain: ENLKGCSVCCKSSWNQLQDLCRLAKLSCPALGISKRNLYDFEVEYLCDYKKIREQEYYLVKWRGYPDSESTWEPRQNLKCVRILKQFHKDLERELLRRHHRSKTPRHLDPSLANYL
B2: ECFP-SUV39H1 (enzyme, human, UniProt O43463-1 1-412, looked up)
chain: MAENLKGCSVCCKSSWNQLQDLCRLAKLSCPALGISKRNLYDFEVEYLCDYKKIREQEYYLVKWRGYPDSESTWEPRQNLKCVRILKQFHKDLERELLRRHHRSKTPRHLDPSLANYLVQKAKQRRALRRWEQELNAKRSHLGRITVENEVDLDGPPRAFVYINEYRVGEGITLNQVAVGCECQDCLWAPTGGCCPGASLHKFAYNDQGQVRLRAGLPIYECNSRCRCGYDCPNRVVQKGIRYDLCIFRTDDGRGWGVRTLEKIRKNSFVMEYVGEIITSEEAERRGQIYDRQGATYLFDLDYVEDVYTVDAAYYGNISHFVNHSCDPNLQVYNVFIDNLDERLPRIAFFATRTIRAGEELTFDYNMQVDPVDMESTRMDSNFGLAGLPGSPKKRVRIECKCGTESCRKYLF
B3: ECFP–SUV39H1-ΔSET (domain or fragment, human, UniProt O43463-1 3-249, looked up)
chain: ENLKGCSVCCKSSWNQLQDLCRLAKLSCPALGISKRNLYDFEVEYLCDYKKIREQEYYLVKWRGYPDSESTWEPRQNLKCVRILKQFHKDLERELLRRHHRSKTPRHLDPSLANYLVQKAKQRRALRRWEQELNAKRSHLGRITVENEVDLDGPPRAFVYINEYRVGEGITLNQVAVGCECQDCLWAPTGGCCPGASLHKFAYNDQGQVRLRAGLPIYECNSRCRCGYDCPNRVVQKGIRYDLCIFR

Sequence of EYFP-HP1β (P83916 whole entry): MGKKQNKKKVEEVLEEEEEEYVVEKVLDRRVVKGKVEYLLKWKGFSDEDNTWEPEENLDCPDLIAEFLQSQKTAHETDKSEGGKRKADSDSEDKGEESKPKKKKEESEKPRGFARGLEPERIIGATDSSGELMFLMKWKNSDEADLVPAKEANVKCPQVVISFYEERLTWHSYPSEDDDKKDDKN

This test addresses EYFP-HP1β (UniProt P83916 1-185). Nature of the test: FRET or BRET. A general note: BRET reads energy transfer from a luciferase to a nearby fluorophore.
Regarding B1, the “mean donor fluorescence lifetime τ Mod” value is 2.8 ns and the “mean donor fluorescence lifetime τφ” value is 2.2 ns.

Turning to B2, the “mean donor fluorescence lifetime τ Mod” value amounted to 2.9 ns and the “mean donor fluorescence lifetime τφ” value stood at 2.2 ns.

On to B3, for which the “mean donor fluorescence lifetime τ Mod” value worked out at 2.7 ns and the “mean donor fluorescence lifetime τφ” value was found to be 2.1 ns.

For the origin of these results see paper PMC2171490 (The Journal of Cell Biology, 2005).
